The values that follow are results of earlier work, collected in article PMC4046138.

In general, Kd refers to the constant that tells how readily two partners part at equilibrium.

The data set has as its target mesothelin (Homo sapiens) (UniProt Q13421).
Chain of UniProt Q13421 (Q13421 other isoform, or with tags, fused parts or gaps): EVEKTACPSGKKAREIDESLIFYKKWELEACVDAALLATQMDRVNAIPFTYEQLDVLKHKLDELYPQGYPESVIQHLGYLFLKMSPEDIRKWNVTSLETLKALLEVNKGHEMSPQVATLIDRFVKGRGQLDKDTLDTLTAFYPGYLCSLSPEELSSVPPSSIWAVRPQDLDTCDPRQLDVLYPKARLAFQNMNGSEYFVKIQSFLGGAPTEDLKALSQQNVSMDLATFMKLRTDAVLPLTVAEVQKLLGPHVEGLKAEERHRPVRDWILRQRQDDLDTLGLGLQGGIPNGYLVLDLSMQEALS

MUC16 (from UniProt Q8WXI7): the Kd is 5 nM.
